Key:
[1] = target: JEV病毒抗原 (JEV Beijing-1株) (Japanese encephalitis virus, Beijing-1 strain); assay: cell-based or functional assay
[2] = target: JEV包膜E蛋白 (Japanese encephalitis virus (strain not stated)); assay: SPR, Biacore T200; 2G1 captured on CM5 chip, E protein as analyte

B1: 乙型脑炎病毒鼠源性单克隆抗体2G1 (antibody, V domains shown)
VH: DVQLQESGLDRVKPSQSLSLTCTVTGYSIISGYSWHWIRQFPGKKLEWMGYIHYSGSATYSPSLKSRISITRDTSKNQFFLQLNSVTTEDTATFYCARGDGSSPYYGMDHWGQGTSVTVSS
VL: DIVLTQSPPSLAVSLGQRATISCRASESVEYSGTGLIHWYQQKPGQPPKLLIYAASSVESGVPARFSGSGSGTDFSLNIHPVEDDDLALYFCQQSRKLPWTFGGGSKLEINR
Q: Which 半数中和浓度(Neut50) [1] does the source give for B1 here?
A: 0.149 µg/mL

Q: What about the Kd [2] of the same binder?
A: 16.5 nM

Q: And the koff [2]?
A: 7.06e-05 s⁻¹

Q: What about the kon [2] of the same binder?
A: 4270 M⁻¹ s⁻¹
